Experimental data reported in US7541446B2, “Tet repressor-based transcriptional regulatory proteins” (Tet Systems Holding GmbH & Co. KG, priority 1999, dated 2009).

Legend:
luciferase activity = assay: Doxycycline-dependent regulation of luciferase in HeLa cells, transient transfection of rtTA2-34R^S or rtTA2; format: cell-based
Text: The synthetic gene encoding rtTA2-34R^S was cloned into pUHD15-1 and expression was examined in HeLa cells.

tetO DNA = assay: DNA retardation experiment with radioactively labeled tetO DNA; format: binding; settings: produced in HeLa cells; compared with rtTA2
Text: Cellular material from cells transfected as described above was also used to compare the binding of rtTA2-34R and rtTA2 (rtTA fused to 3 minimal activation domains) to operator DNA in DNA retardation experiments.
rtTA2 and rtTA2-34R^S were produced in HeLa cells and exposed to radioactively labeled tetO DNA in presence (+) and absence (−) of Dox.

B1: rtTA2-34R^S: first 206 amino acids of rtTA-34R fused to 3 minimal VP-16 activation domains (FFF), synthetic gene with human codon frequencies, SEQ ID NO: 5 (protein)
chain: MSRLDKSKVINSALELLNGVGIEGLTTRKLAQKLGVEQPTLYWHVKNKRALLDALPIEMLDRHHTHFCPLEGESWQDFLRNNAKSFRCALLSHRDGAKVHLGTRPTEKQYETLENQLAFLCQQGFSLENALYALSAVGHFTLGCVLEEQEHQVAKEERETPTTDSMPPLLRQAIELFDRQGAEPAFLFGLELIICGLEKQLKCESGGPADALDDFDLDMLPADALDDFDLDMLPADALDDFDLDMLPG
- induction in cells treated with Dox (luciferase activity): up to 20 fold
- luciferase activity in relative light units, + Dox (luciferase activity; + Dox): 20.325
- luciferase activity in relative light units, − Dox (luciferase activity; − Dox): 1
- residual binding to operator DNA (binding in the absence of Dox) (tetO DNA): greatly reduced
